# Source: paper PMC5760199, “Structural insights into the assembly and polyA signal recognition mechanism of the human CPSF complex”
# How the values were obtained:
# [1] = biological target: T1, CPSF160FL;WDR33 M1-K410;CPSF30FL;Fip1FL (Homo sapiens;Homo sapiens;Homo …, UniProt Q10570;Q9C0J8;O95639-3;Q6UN15-4 1-1443;1-410;1-243;1-378, |||); test: fluorescence polarization; error 0.09 in text, 0.90 in Table 2; 20 mM Tris pH 7.5, 150 mM NaCl, 1 mM DTT, 0.05% Tween 20, 25 C, 0.1 nM labelled RNA; details: protein: recombinant;recombinant;recombinant;recombinant; tags: His6 (438B vector; Ni-NTA and Streptactin purified);;; copies: 1;1;1;1; label: 5' Atto532
# [2] = biological target: CPSF160FL;WDR33 M1-K410;CPSF30 ZF1-5;Fip1CD (Homo sapiens;Homo sapiens;Homo …, UniProt Q10570;Q9C0J8;O95639-3;Q6UN15-4 1-1443;1-410;1-169;130-195, |||); test: fluorescence polarization; 20 mM Tris pH 7.5, 150 mM NaCl, 1 mM DTT, 0.05% Tween 20, 25 C, 0.1 nM labelled RNA; details: protein: recombinant;recombinant;recombinant;recombinant; tags: His6 (438B vector; Ni-NTA and Streptactin purified);;; copies: 1;1;1;1; label: 5' Atto532
# [3] = biological target: CPSF160FL;WDR33 M1-K410 R49A/K50A;CPSF30 ZF1-3 (Homo sapiens;Homo sapiens;Homo sapiens, UniProt Q10570;Q9C0J8;O95639-3 1-1443;1-410;1-117, |R49A;K50A|); test: as above; details: protein: recombinant;recombinant;recombinant; tags: His6 (438B vector); copies: 1;1;1; label: 5' Atto532
# [4] = biological target: CPSF160FL;WDR33 M1-K410;CPSF30 ZF1-3 (Homo sapiens;Homo sapiens;Homo sapiens, UniProt Q10570;Q9C0J8;O95639-3 1-1443;1-410;1-117, ||); test: as above; details: protein: recombinant;recombinant;recombinant; tags: His6 (438B vector; Ni-NTA and Streptactin purified);; copies: 1;1;1; label: 5' Atto532
# [5] = biological target: CPSF160FL;WDR33 M1-K410 K46A/R47A;CPSF30 ZF1-3 (Homo sapiens;Homo sapiens;Homo sapiens, UniProt Q10570;Q9C0J8;O95639-3 1-1443;1-410;1-117, |K46A;R47A|); test: as above; details: protein: recombinant;recombinant;recombinant; tags: His6 (438B vector); copies: 1;1;1; label: 5' Atto532
# [6] = biological target: T1, CPSF160FL;WDR33 M1-K410;CPSF30FL;Fip1FL; test: fluorescence polarization; two repeats; 20 mM Tris pH 7.5, 150 mM NaCl, 1 mM DTT, 0.05% Tween 20, 25 C, 0.1 nM labelled RNA; details: protein: recombinant;recombinant;recombinant;recombinant; tags: His6 (438B vector; Ni-NTA and Streptactin purified);;; copies: 1;1;1;1; label: 5' Atto532
# CPSF160FL;WDR33 M1-K410;CPSF30 ZF1-5;Fip1CD, sequence (Q10570 whole entry, chain 1 of 4): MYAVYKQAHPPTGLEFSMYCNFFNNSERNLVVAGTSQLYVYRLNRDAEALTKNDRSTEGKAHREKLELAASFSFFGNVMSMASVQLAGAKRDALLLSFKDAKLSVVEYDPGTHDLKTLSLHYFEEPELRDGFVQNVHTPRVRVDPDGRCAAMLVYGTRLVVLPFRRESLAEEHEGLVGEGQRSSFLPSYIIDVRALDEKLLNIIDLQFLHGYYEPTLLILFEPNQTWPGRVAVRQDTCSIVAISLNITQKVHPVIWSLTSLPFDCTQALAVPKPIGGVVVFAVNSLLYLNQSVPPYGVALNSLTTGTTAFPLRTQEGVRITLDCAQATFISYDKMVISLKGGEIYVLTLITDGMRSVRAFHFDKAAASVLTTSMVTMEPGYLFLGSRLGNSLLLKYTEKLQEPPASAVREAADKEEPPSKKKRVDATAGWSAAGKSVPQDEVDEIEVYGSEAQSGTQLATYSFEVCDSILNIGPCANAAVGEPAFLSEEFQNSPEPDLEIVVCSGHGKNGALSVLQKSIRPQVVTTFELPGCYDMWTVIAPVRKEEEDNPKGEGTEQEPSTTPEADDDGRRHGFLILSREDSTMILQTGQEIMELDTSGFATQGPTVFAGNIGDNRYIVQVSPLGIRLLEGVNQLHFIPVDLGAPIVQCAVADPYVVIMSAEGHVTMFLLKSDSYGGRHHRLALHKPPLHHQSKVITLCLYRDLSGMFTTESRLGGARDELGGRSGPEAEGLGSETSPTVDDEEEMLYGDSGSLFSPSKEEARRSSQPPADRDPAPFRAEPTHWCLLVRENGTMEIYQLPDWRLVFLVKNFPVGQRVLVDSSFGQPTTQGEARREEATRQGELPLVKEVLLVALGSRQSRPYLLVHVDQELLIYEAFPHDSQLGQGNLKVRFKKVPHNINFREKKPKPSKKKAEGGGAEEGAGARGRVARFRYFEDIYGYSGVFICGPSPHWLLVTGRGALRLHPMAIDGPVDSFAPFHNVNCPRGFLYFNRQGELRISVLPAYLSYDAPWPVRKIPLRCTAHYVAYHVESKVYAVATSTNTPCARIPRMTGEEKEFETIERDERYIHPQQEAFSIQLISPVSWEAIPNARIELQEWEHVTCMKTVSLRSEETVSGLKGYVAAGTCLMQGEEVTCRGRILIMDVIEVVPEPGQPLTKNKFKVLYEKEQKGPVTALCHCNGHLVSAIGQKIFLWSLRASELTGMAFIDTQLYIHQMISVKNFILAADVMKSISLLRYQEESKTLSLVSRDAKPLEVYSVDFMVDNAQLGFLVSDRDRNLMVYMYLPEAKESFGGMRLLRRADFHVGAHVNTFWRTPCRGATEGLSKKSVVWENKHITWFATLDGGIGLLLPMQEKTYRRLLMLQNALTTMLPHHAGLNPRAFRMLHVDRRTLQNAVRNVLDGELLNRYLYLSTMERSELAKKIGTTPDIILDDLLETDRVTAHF
# CPSF160FL;WDR33 M1-K410;CPSF30 ZF1-5;Fip1CD, sequence (Q9C0J8 1-410, chain 2 of 4): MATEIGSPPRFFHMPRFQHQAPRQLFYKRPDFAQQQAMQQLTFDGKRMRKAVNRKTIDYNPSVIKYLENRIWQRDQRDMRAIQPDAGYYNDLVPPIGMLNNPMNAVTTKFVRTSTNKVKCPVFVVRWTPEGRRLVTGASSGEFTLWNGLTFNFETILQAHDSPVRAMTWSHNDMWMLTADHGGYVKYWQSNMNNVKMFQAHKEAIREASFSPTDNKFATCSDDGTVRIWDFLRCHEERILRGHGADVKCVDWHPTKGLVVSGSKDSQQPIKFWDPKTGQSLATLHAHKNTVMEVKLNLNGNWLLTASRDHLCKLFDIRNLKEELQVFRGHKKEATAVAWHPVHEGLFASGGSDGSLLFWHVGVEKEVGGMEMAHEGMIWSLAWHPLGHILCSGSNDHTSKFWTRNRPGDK
# CPSF160FL;WDR33 M1-K410;CPSF30 ZF1-5;Fip1CD, sequence (O95639 1-169, chain 3 of 4): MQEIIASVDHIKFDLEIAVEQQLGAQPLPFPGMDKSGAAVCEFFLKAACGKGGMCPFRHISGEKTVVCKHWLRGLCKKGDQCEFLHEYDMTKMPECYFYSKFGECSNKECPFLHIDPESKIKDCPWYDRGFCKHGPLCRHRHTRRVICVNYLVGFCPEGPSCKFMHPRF
# CPSF160FL;WDR33 M1-K410;CPSF30 ZF1-5;Fip1CD, sequence (Q6UN15 145-210, chain 4 of 4): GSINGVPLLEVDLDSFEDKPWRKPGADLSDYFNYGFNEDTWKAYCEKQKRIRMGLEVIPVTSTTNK
# T1 sequence (Q10570 whole entry, chain 1 of 4): as the sequence (Q10570 whole entry, chain 1 of 4) above
# T1 sequence (Q9C0J8 1-410, chain 2 of 4): as the sequence (Q9C0J8 1-410, chain 2 of 4) above
# T1 sequence (O95639 other isoform, or with tags, fused parts or gaps |||, chain 3 of 4): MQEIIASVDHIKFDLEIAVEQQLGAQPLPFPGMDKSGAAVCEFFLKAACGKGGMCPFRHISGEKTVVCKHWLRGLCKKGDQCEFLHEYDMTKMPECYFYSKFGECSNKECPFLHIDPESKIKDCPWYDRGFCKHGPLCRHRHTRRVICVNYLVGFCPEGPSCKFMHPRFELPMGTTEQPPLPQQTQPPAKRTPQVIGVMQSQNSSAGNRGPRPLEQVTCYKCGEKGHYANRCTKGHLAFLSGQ
# T1 sequence (Q6UN15 other isoform, or with tags, fused parts or gaps |||, chain 4 of 4): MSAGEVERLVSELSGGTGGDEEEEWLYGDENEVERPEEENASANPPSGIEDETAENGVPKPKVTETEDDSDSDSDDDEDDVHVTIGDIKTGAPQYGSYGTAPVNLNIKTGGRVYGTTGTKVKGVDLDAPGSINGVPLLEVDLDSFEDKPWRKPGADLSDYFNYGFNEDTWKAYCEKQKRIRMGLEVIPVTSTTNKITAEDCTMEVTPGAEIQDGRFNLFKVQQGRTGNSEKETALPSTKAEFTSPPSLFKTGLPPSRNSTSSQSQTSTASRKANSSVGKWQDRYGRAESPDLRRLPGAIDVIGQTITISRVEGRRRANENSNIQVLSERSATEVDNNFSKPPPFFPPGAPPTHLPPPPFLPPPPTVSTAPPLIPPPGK
# CPSF160FL;WDR33 M1-K410;CPSF30 ZF1-3, sequence (Q10570 whole entry, chain 1 of 3): as the sequence (Q10570 whole entry, chain 1 of 4) above
# CPSF160FL;WDR33 M1-K410;CPSF30 ZF1-3, sequence (Q9C0J8 1-410, chain 2 of 3): as the sequence (Q9C0J8 1-410, chain 2 of 4) above
# CPSF160FL;WDR33 M1-K410;CPSF30 ZF1-3, sequence (O95639 1-117, chain 3 of 3): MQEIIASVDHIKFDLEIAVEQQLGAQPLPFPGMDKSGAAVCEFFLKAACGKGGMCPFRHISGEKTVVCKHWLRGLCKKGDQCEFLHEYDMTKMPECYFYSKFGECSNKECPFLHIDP
# CPSF160FL;WDR33 M1-K410 R49A/K50A;CPSF30 ZF1-3, sequence (Q10570 whole entry, chain 1 of 3): as the sequence (Q10570 whole entry, chain 1 of 4) above
# CPSF160FL;WDR33 M1-K410 R49A/K50A;CPSF30 ZF1-3, sequence (Q9C0J8 1-410 R49A/K50A, chain 2 of 3): as the sequence (Q9C0J8 1-410, chain 2 of 4) above, with R49A, K50A counted along it
# CPSF160FL;WDR33 M1-K410 R49A/K50A;CPSF30 ZF1-3, sequence (O95639 1-117, chain 3 of 3): as the sequence (O95639 1-117, chain 3 of 3) above
# CPSF160FL;WDR33 M1-K410 K46A/R47A;CPSF30 ZF1-3, sequence (Q10570 whole entry, chain 1 of 3): as the sequence (Q10570 whole entry, chain 1 of 4) above
# CPSF160FL;WDR33 M1-K410 K46A/R47A;CPSF30 ZF1-3, sequence (Q9C0J8 1-410 K46A/R47A, chain 2 of 3): as the sequence (Q9C0J8 1-410, chain 2 of 4) above, with K46A, R47A counted along it
# CPSF160FL;WDR33 M1-K410 K46A/R47A;CPSF30 ZF1-3, sequence (O95639 1-117, stated change not applied, chain 3 of 3): as the sequence (O95639 1-117, chain 3 of 3) above
Binder,Kd [1],Kd [2],Kd [3],Kd [4],Kd [5],Kd [6]
CACACAAUAAAGGCAA (ssRNA) [L3 PAS RNA wild-type (AAUAAA)],0.65 ± 0.09 nM,0.11 ± 0.03 nM,2.42 ± 0.66 nM,< 0.1 nM,7.78 ± 0.78 nM,
CACACAAGAAAGGCAA (ssRNA) [L3 PAS RNA mutant (AAGAAA)],,70 ± 6 nM,,43 ± 2 nM,,120 ± 23 nM
